Substrate in this series: NC(=O)C1=CN([C@@H]2O[C@H](COP(=O)(O)OP(=O)(O)OC[C@H]3O[C@@H](n4cnc5c(N)ncnc54)[C@H](O)[C@@H]3O)[C@@H](O)[C@H]2O)C=CC1
Briefly: NADH-dependent CO2 reduction kinetics of RcFDH (Michaelis-Menten). The format is biochemical, Rhodobacter capsulatus. The conditions noted are these: Kpi buffer pH 7.0, absorbance at 365 nm. How it is done:
To construct the Strep-Tag II-fused Rhodobacter capsulatu-derived formate dehydrogenase (RcFDH) expression plasmid, pTrcHis-RcFDH was used as a template. […] was performed to substitute the hexahistidine-tag for strep tag II. pTrcHis-RcFDH was amplified by PCR with the in-fusion primer (FW: SEQ ID NO: 9, RV: SEQ ID NO: 10). The PCR product was mixed with 5× In-Fusion HD Enzyme Premix to generate pTrcHis-strep-RcFDH. The E. coli MC1061 strain was transformed with pTrcHis-Strep-RcFDH, and R. eutropha HF210 [pGE771] strain was used as the Ralstonia eutropha-derived hydrogenase (ReSH)-expressing strain.
The enzyme reaction kinetics of RcFDH were measured for NADH-dependent reduction of CO2 to formate in the presence or absence of O2. The sealing cuvette was filled with 900 μL of Kpi buffer containing NADH and sealed; then, 100% CO2 and a mixed gas consisting of 4% O2 and 96 N2 (or 100% N2 for anaerobic conditions) were injected simultaneously for 30 min at 10 mL/min, respectively. RcFDH (2 mL, 2 μM) was purged with 10 mL/min N2 gas bubbling in a 10 mL sealing vial for 30 min to remove O2 from the air. The reaction was initiated by mixing 100 μL of 2 μM RcFDH with a gas-saturated solution in the sealing cuvette. The final concentration of NADH was varied from 0 to 1 mM.
All measurements were performed in triplicate based on the change in the absorbance at 365 nm in the cuvette, measured using a T60 UV-Vis spectrophotometer (PG Instruments Ltd, Lutterworth, UK). The change in the absorbance over 1 min was plotted using the Michaelis-Menten equation to calculate the kinetic parameters.
The present inventor investigated the enzymatic activities of ReSH and RcFDH in the presence or absence of O2. The NAD^+-dependent H2 oxidation reaction rate by ReSH was measured, and the Michaelis-Menten curve was fitted to calculate the kinetic parameters using Origin 2022 program (FIG. 3A). […] Similarly, the NADH-dependent CO2 reduction reaction rate by RcFDH was measured, and the Michaelis-Menten curve was fitted to calculate the kinetic parameters (FIG. 3B).

Setting [1] is: other: 0% O2, NADH varied 0 to 1 mM.
[2] abbreviates: other: 2% O2, NADH varied 0 to 1 mM.

The term Km denotes the substrate concentration at which the rate is half of its maximum. The kcat is the maximal rate divided by the concentration of active sites.

B1: Strep-Tag II-fused Rhodobacter capsulatus-derived formate dehydrogenase (RcFDH), SEQ ID NO: 6 to SEQ ID NO: 8 (Rhodobacter capsulatus SB 1003) (protein)
chain 1: MKIWLPCDAAAKACGAEAVLAALRLEAEKRGGALDIARNGSRGMIWLEPLLEVETPAGRIGFGPMTPADVPALFDALESHPKALGLVEEIPFFKRQTRLTFARCGRIEPLSLAQFAAAEGWAGLRKALKMTPAEVVEEVLASGLRGRGGAGFPTGIKWRTVAAAQADQKYIVCNVDEGDSGSFADRMLIEGDPFCLVEGMAIAGHAVGATRGYVYIRSEYPDAIAVMRAAIAMAKPFLAEAGFEMEVRVGAGAYVCGEETSLLNSLEGKRGTVRAKPPLPALKGLFGKPTVVNNLLSLAAVPWIIAHGAKAYESFGMDRSRGTIPLQIGGNVKRGGLFETGFGITLGELVEDICGGTASGRPVKAVQVGGPLGAYHPVSDYHLPFCYEQFAGQGGLVGHAGLVVHDDTADMLKLARFAMEFCAIESCGTCTPCRIGAVRGVEVIDRIAAGDASAMPLLDDLCQTMKLGSLCALGGFTPYPVQSAIRHFPADFPCAREAAE
chain 2: MKDLIIPPLDWTQDMGTPKREGAPVHLTIDGVEVTVPAGTSVLRAAAEAGISIPKLCATDNVEPVGSCRLCMVEIEGMRGTPTSCTTPVAPGMRVHTQTPQLQKLRRGVMELYISDHPLDCLTCAANGDCELQDMAGAVGLREVRYQAKDTHFARRDATGPNPRYIPKDNSNPYFSYDPAKCIVCMRCVRACEEVQGTFALTVMGRGFDARISPAAPDFLSSDCVSCGACVQACPTATLVEKSVERIGTPERKVVTTCAYCGVGCSFEAHMLGDQLVRMVPWKGGAANRGHSCVKGRFAYGYATHQDRILKPMIRDKITDPWREVNWTEALDFTATRLRALRDSHGADALGVITSSRCTNEETYLVQKLARAVFGTNNTDTCARVCHSPTGYGLKQTFGTSAGTQDFDSVEETDLALVIGANPTDGHPVFASRLRKRLRAGAKLIVVDPRRIDLLNTPHRGEAWHLQLKPGTNVAVMTAMAHVIVTEQIFDKRFIGDRCDWDEWADYAEFVANPEYAPEAVESLTGVPAGLLRQAARAYAAAPNAAIYYGLGVTEHSQGSTTVIAIANLAMMTGNIGRPGVGVNPLRGQNNVQGSCDMGSFPHEFPGYRHVSDDATRGLFERTWGVTLSSEPGLRIPNMLDAAVEGRFKALYVQGEDILQSDPDTRHVSAGLAAMDLVIVHDLFLNETANYAHVFLPGSTFLEKDGTFTNAERRINRVRRVMAPKAGFADWEVTQMLANALGAGWHYTHPSEIMAEIAATTPGFAAVTYEMLDARGSVQWPCNEKAPEGSPIMHVEGFVRGKGRFIRTAYLPTDEKTGPRFPLLLTTGRILSQYNVGAQTRRTENTVWHGEDRLEIHPTDAETRGIRDGDWVRLASRAGETTLRATVTDRVSPGVVYTTFHHPDTQANVVTTDTSDWATNCPEYKVTAVQVAASNGPSDWQQDYAAQAAAARRIEAAE
As to B1, under setting [1], the Km amounted to 166 ± 30 µM and the kcat was determined as 0.703 ± 0.043 s⁻¹. In addition, under setting [2], the Michaelis constant (Km) amounted to 141 ± 22 µM and the kcat turned out to be 0.699 ± 0.035 s⁻¹.

Source of the values: patent publication US12655454B2, “Process for producing formate using oxygen-tolerant enzymes” (GWANGJU INSTITUTE OF SCIENCE AND TECHNOLOGY, priority 2022, dated 2026).
